# In the RNAGym collection of RNA variant scans (doi:10.7554/elife.90254):
# B1: OR4K15 (parent)
# chain: GUUAACGGUCAUAGGCCAUGGAAACUAGGAGCACCAUUUCGCUGCCAGUGAAGAAAUGAACAAAGAAAAUCUGGGCCAGGCAGGCAUCAAAAGAAAUAGUCUUGCGCUCAACCAGAAAGUCUGUAAUCAUUUUAAGGGUA
# Variants of: B1
# Assay: self-cleavage, relative activity (ratio to wild type); higher = more cleavage; in vitro, sequencing; the parent is a self-cleaving ribozyme
row,Variant,self-cleavage
1,U19C A126U,0.65
2,A22C U108A,0.02
3,G20A A116G,0.47
4,G21A A36G,1.9
5,G21A A33G,0.33
6,U19C A111U,0.07
7,U19C A56G,1.29
8,U19A U120C,0.79
9,G20U A82U,0.2
10,U19C C46A,1.64
11,G20A A110U,1.39
12,G20A U49C,1.6
13,U19C A55G,1.17
14,G20A U72A,0.06
15,G20C U124A,0.67
16,G20U A68G,1.59
17,U19G A91G,1.28
18,G20A A52U,1.8
19,G20U A78G,0.26
20,U19C A89U,1.15
21,U19C A89G,1.5
22,U19C U127C,0.95
23,U19C U127A,2.17
24,G20A A90G,0.76

row,Variant,self-cleavage
1,U19C A52G,1.35
2,G21C U102C,2.26
3,U19C C45U,0.47
4,G20A U102C,2.1
5,G21A U132A,1.94
6,G20A U132C,1.92
7,G20C A36G,2.25
8,U19C A62U,1.48
9,U19A U131A,0.78
10,U19C C113A,0
11,U19C A69C,1.71
12,U19C A69U,1.62
13,U19C A69G,1.05
14,U19C U132A,1.89
15,U19C G75U,0.08
16,U19G A111G,0.04
17,U19C U130C,0.31
18,U19C U72A,0.33
19,U19G A60G,1.61
20,U19C A23G,0.88
21,U19C G115A,0.03
22,U19C C109U,0.63
23,G21A U130C,0.53
24,G20A U37C,0.64

row,Variant,self-cleavage
1,G21C A126G,1.63
2,U19G C40A,1.04
3,U19C C112A,0.02
4,U19C U122A,0.65
5,U19C U122C,0.46
6,G20U U97C,0.63
7,U19G A86U,0.68
8,U19C U43C,0.54
9,G21U A59G,1.68
10,U19C A125G,0.61
11,U19C A91G,1.09
12,A22C A30G,1
13,G20U C77A,0.73
14,G21A A66G,1.12
15,U19C A92U,1.93
16,U19C C105U,0.15
17,U19C C105G,0.04
18,U19C A86G,1.37
19,G21A U38G,1.15
20,G21A U102C,2.29
21,U19C C32U,1.32
22,U19C C32G,1.51
23,U19C A36U,1.76
24,U19C A36G,2.03

row,Variant,self-cleavage
1,U19C C34U,0.91
2,U19C A51U,1
3,G20A A62G,1.45
4,G20A A126G,1.02
5,U19C G50A,1.38
6,A22C A114U,0.08
7,U19C U37A,0.9
8,U19G A114U,0.1
9,U19C G136A,1.38
10,A22C A69U,1.74
11,U19C A30U,1.02
12,A22C U139C,0.51
13,U19C U139C,1.58
14,U19C U100A,0.71
15,U19C U100C,1.97
16,G20A A59U,0.83
17,G20A A59G,1.19
18,G21A A126G,1.09
19,G21A A96C,0.6
20,G20U A129G,1.17
21,U19C A68U,1.36
22,U19C A68G,1.24
23,U19A U108C,0.03
24,U19C G28A,1.41

row,Variant,self-cleavage
1,G20A A54G,1.28
2,U19C A114C,0.06
3,G20A A60U,1.92
4,U19G A94G,1.02
5,U19G A94U,1.64
6,U19C A140G,0.62
7,G21U A118G,1.98
8,U19C C88A,2.03
9,G21A U120A,1.28
10,A22C U102C,2.42
11,G21C C61U,0.94
12,G21U U72A,0.4
13,U19A U103C,0.75
14,U19C A63G,0.89
15,G21U U108A,0.02
16,U19G U100C,2.09
17,U19G U100A,0.74
18,U19C U57A,1.21
19,U19C U57C,1.37
20,U19C A24G,1.28
21,U19C A95G,1.58
22,G21A A52G,1.57
23,G21A A24G,1.35
24,G21U U37C,1.85

row,Variant,self-cleavage
1,U19C U131C,1.14
2,U19G A47U,1.08
3,U19G G28C,0.48
4,U19G A78U,0.89
5,U19G A78C,0.39
6,G20U U100C,2.46
7,G21A U72C,0.3
8,U19G A126G,1.18
9,U19C A117G,1.58
10,G21U A52G,1.58
11,U19C G48U,2.78
12,G21C A118G,1.14
13,G21C,0.85
14,G21A,0.62
15,G21U,1.51
16,U19C A134G,1.62
17,G20A A68G,1.37
18,G20A C121U,2.49
19,U19C U87A,1.48
20,U19C U87C,1.52
21,U19C U38A,1.46
22,U19C A116G,0.11
23,U19C A116U,0.3
24,G21C A68G,2.19

row,Variant,self-cleavage
1,U19C A118G,1.27
2,U19C C85U,0.88
3,G20U U130C,1.04
4,G20U A67G,1.24
5,U19C A82G,0.61
6,G20A U97A,2.67
7,U19G A51U,1.46
8,U19G A51G,0.33
9,U19C G80C,0.1
10,G20U A33U,0.94
11,G20U A111G,0.04
12,G21A A86U,2.01
13,U19C U39C,1.7
14,G20A A78G,0.3
15,U19C A129C,1.72
16,G21U U87A,1.31
17,U19C A78U,0.28
18,G21A A55G,1.29
19,U19C U102A,1.29
20,G20A U38G,1.25
21,G20A U38C,1.72
22,G21C A78G,0.27
23,U19C A47G,0.41
